Data published in the supplement of paper PMC9170038.

System: MS2 coat protein
Assay: apparent KD of MS2 coat protein; designed switch direction (-1 OFF switch, 1 ON switch): -1; higher = weaker reporter binding
Summary of the method: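 The reported apparent KD is a per-design median over clusters, from curve fits of normalised cluster fluorescence. Protein titrations used SNAP-549-labelled MS2 coat protein, doubled from 0.7 or 1.5 nM to 3 µM, in Tris-HCl pH 7.5 buffer with KCl, MgCl2, BSA, DTT, tRNA and Tween-20, with no input, 200 uM small-molecule ligand, or an oligonucleotide input. The RNA switches were transcribed on Illumina chips by stalled E. coli RNA polymerase.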

[1] = Eterna round: R95, input ligand: microRNA oligo, concentration not stated
[2] = input ligand: microRNA oligo, concentration not stated
[3] = Eterna round: R95, input ligand: FMN 200 uM
[4] = Eterna round: R95, input ligand: none

| Sequence | apparent KD of MS2 coat protein (input ligand: FMN 200 uM) [nM] | apparent KD of MS2 coat protein (input ligand: none) [nM] | apparent KD of MS2 coat protein [1] [nM] | other results |
| --- | --- | --- | --- | --- |
| AAAUUGGUAGAGGAUAUCGUACAGGAAACGGUGCGAGAAGGUUGCACAUGAGGAUCACCCAUGUUAAGUUGCGA [EX6 #45] (Eterna round: R97, puzzle: Exclusion 6) | 24.1 | 26.8 |  |  |
| ACUAGAUGAGGAUAUGCAUGUUUUCGUGUUCUUCUAGAUUAACAUGAGGAUCACCCAUGUAGAAGGCGUCAUAU [Exclusion 2 - 29] (puzzle: Exclusion 2) |  |  | 45 |  |
| GUCUUACAUGAGGAUCACCCAUGUGAGGAUAUGAGUGGUGCUGCUAGGUAGUAUAGACUCAGAAGGCGCAUGAU [Malcxlusion 3 - Jieux - Exclusion 1] (Eterna round: R97, puzzle: Exclusion 1) | 37.7 | 22.6 |  |  |
| GAGCCAACAGGAUAUACAUGAGGAUCACCCAUGUGAAUUCGCUACACAGGGAUGAACAGUAGAAGGGUUGGUAU [Eternabot (Original) Solution 49] (Eterna round: R97, puzzle: Exclusion 3) | 165 | 229 |  |  |
| UUUAAGUCAGGAUAUCGUUAAUUUAAUAAAUUAAUUUAAUUCGAGAAGGGACAUGAGGAUCACCCAUGUAAUUU [Ex4 #2] (Eterna round: R97, puzzle: Exclusion 4) | 33.5 | 28 |  |  |
| AAUUUACAUGAGGAUCACCCAUGUGAGGAUAUAUACAAAGAAGUGUUAGUAAGAAUGUAUAGAAGGCGCGUGAU [JR_Exc1_Sub040] (Eterna round: R97, puzzle: Exclusion 1) | 71.4 | 58.6 |  |  |
| ACGUGACAUGAGGAUCACCCAUGUGAGGAUAUCUGGAUAAUUUUUAUUUUAGAUAUCCAGAGAAGGCACAUGUU [Ex1-3: 1Z] (puzzle: Exclusion 1) |  |  | 188 |  |
| CCGGUUGGCGCAGGAUAUACAUGAGGAUCACCCAUGUUCAUGAGGAUCGCCCAUGAGUUUUUGUUGUAGAAGGGUGGCCCGGCC (Eterna round: R96, puzzle: Exclusion NG 2) | 92.4 | 84 |  | apparent KD of MS2 coat protein [2]: 70 nM |
| UUAACAUGCUGGUGAUCAUACAUGAGGAUCACCCAUGUAACAAGCUUUUUGCUCGUCUUAAUUUAAUUGAUUACUAG [Stov1/8-A1] (Eterna round: R97, puzzle: Sensor, turn-off variant 1) | 120 | 134 |  |  |
| UGAAAACAUGAGGAUCACCCAUGUAAGGAUAUGCAAAAGGAUAUAGAAGGAAAAAAAAGCAGAAGGUACAAAGG [salish99-ex1_r3_095] (puzzle: Exclusion 1) |  |  | 86.6 | apparent KD of MS2 coat protein [3]: 99.4 nM; apparent KD of MS2 coat protein [4]: 60.3 nM |
| CCUCCACAUGAGGAUCACCCAUGUAAGGAUAUACCACGCUAAGGCAAACAAAAGAACGGUAGAAGGUACCUGGC [Eternabot (Original) Solution 44] (Eterna round: R97, puzzle: Exclusion 1) | 32.7 | 23.5 |  |  |
| CGUGCGUAUGUGAGGAUAUGCUGGUCCUUGGAUCGGCAGAAGGCACAUGAGGAUCACCCAUGUGGUGUCGUUCC [salish99_Bmod_ex4_094] (puzzle: Brourd's mod of Exclusion 4) |  |  | 39 |  |
| GGUUGGCGAGGAUAUACAUGAGGAUCACCCAUGUGAGAGAAAGAAGUGAGGAAGAAAAGUAGAAGGCGCUGACG [salish99_ex3_r3_005] (puzzle: Exclusion 3) |  |  | 196 | apparent KD of MS2 coat protein [3]: 542 nM; apparent KD of MS2 coat protein [4]: 59 nM |
| UCCCAACAUGAGGAUCACCCAUGUAAGGAUAUCCAUGGACGACGGCAUUGUUCCCGGCGGAGAAGGUGCAUGGU [EX1 B.21] (Eterna round: R97, puzzle: Exclusion 1) | 46.4 | 27.6 |  |  |
| AAUGAGGGAGGAUAUACAUUCGGCUGUCAACAGCCCUUGGGACAUGAGGAUCACCCAUGUAGAAGGCCCGAUUA [EX2 B.20] (Eterna round: R97, puzzle: Exclusion 2) | 365 | 38.7 |  |  |
| UCUGUUGAAGGAUAUGCGUAACGAGUUACGGCUCAAGGUCUACAUGAGGAUCACCCAUGUAGAAGGUCAUCAGA [EX2 #71] (Eterna round: R97, puzzle: Exclusion 2) | 19.5 | 17.4 |  |  |
| GGAUCACAUGUCAGGAUAUGCUGGUCCUUGGAUCAGCAGAAGGGACAUGAGGAUCACCCAUGUCAUGAAGAUCC [Eli bmx4 4.80] (Eterna round: R97, puzzle: Brourd's mod of Exclusion 4) | 1020 | 139 |  |  |
| GCCAGAGCAGGAUAUUCAAUAUGUCACAUGAGGAUCACCCAUGUCCAGCGAAAGCUGGAGGGAGAAGGGCUCUGGC [Fiskers Ex 5 - 18] (puzzle: Exclusion 5) |  |  | 89.3 | apparent KD of MS2 coat protein [3]: 23.7 nM; apparent KD of MS2 coat protein [4]: 119 nM |

| Sequence | apparent KD of MS2 coat protein (input ligand: FMN 200 uM) [nM] | apparent KD of MS2 coat protein (input ligand: none) [nM] | apparent KD of MS2 coat protein [1] [nM] | other results |
| --- | --- | --- | --- | --- |
| AGAAAUGCCCAUGGCCACAAGCUUUUUGCUUGUCUUACUACAUGAGGAUCACCCAUGUAACAUGGGCUCCUGACAAA [Soarriat] (puzzle: Sensor v3, turn-off variant 2) |  |  | 9.12 | apparent KD of MS2 coat protein [3]: 12.9 nM; apparent KD of MS2 coat protein [4]: 10.9 nM |
| GGGUGCAAGCUAAGAUCCUACAUGAGGAUCACCCAUGUGGUCCGGUGACGUGAGUCACCGGACUUAGCUCGUCUUGU [salish99_S_TOV1_R5_004] (Eterna round: R97, puzzle: Sensor, turn-off variant 1) | 91.2 | 95.6 |  |  |
| AAUACAAGCUAUUGAUCCCACAUGAGGAUCACCCAUGUAGCUGGCCGUGAGACCAGCUUUACGAUAGCUCGUCUUAU [Sensor-V1 #50] (Eterna round: R97, puzzle: Sensor, turn-off variant 1) | 261 | 263 |  |  |
| AUAAUGUGAGGAUAUAUGAAUCACGGUGAUACACCGUGAAGAUAGAAGGUACAUGAGGAUCACCCAUGUAGGGC [Mod of Anonveat 14 - Jieux - Exclusion 4] (Eterna round: R97, puzzle: Exclusion 4) | 39.5 | 42.3 |  |  |
| CACCGUUAGCGAGGAUAUCGUACAUGAGGAUCACCCAUGUAAUAAAUGAGAAUUUCGGAUGUAUGCGAGAAGGCGCGAAUCGGC [Ostracism 34 - Jieux - Exclusion NG 2] (Eterna round: R96, puzzle: Exclusion NG 2) |  |  |  | apparent KD of MS2 coat protein [2]: 36.6 nM |
| UUUUGAUGAGGAUAUCGAGGUUAGUACAUGAGGAUCACCCAUGUUAUCCAGGUGUCGGUUCGAGAAGGUAUUGGAC [LRO-Ex5-16] (puzzle: Exclusion 5) |  |  | 16 |  |
| CCCAGGUCAUCUCCCGGGAACAACAUGAGGAUCACCCAUGUCUAGGAUAUCCACCAGUCAAUAAAGGAGAAGGAGACGGUGGUU [Edatarte] (Eterna round: R96, puzzle: Exclusion NG 3) |  |  |  | apparent KD of MS2 coat protein [2]: 20.2 nM |
| CAGUACUGAGGAUAUACAUGAGGAUCACCCAUGUGCUCUAGCUAGGAUACUAGCAUUAGUAGAAGGCAGUACUG [Fiskers Ex 3 828 mod 8] (puzzle: Exclusion 3) |  |  | 15.2 |  |
| CCAUCGUGUGUGAGGAUAUGCUGGUCCUUGGAUCAGCAGAAGGCACAUGAGGAUCACCCAUGUGAAUACGAUGG [Mat - Exclusion 4 - JL Mod - D87] (puzzle: Brourd's mod of Exclusion 4) |  |  | 14.9 |  |
| UGCCAGCGAGGAUAUGCUAGAGGUGUUCCGUGCUCUAAGGGACAUGAGGAUCACCCAUGUAGAAGGCGCACGUC [Eternabot (L1) Solution 20] (Eterna round: R97, puzzle: Exclusion 2) | 187 | 194 |  |  |
| CCGGUUGGCGCAGGAUAUACAUGAGGAUCACCCAUGUUCAUGAGGAUCACCCAUGAGGUAAUGAUGUAGAAGGGUGGCCCGGCC [A second MS2 with the first and last base exchanged] (Eterna round: R96, puzzle: Exclusion NG 2) | 30.5 | 33.6 |  | apparent KD of MS2 coat protein [2]: 18.5 nM |
| UAAUAGUGAGGAUAUACAGAAUCUGGGUCCCGCGUGUUGAGACAUGAGGAUCACCCAUGUAGAAGGCACAAAAU [Tetiage] (puzzle: Exclusion 2) |  |  | 112 |  |
| UCAGGUCGGUAGGAUAUCGACGGGAAAAUCCCACGAGAAGGACUGACAUGAGGAUCACCCAUGUGAGCGUAACC [EX6 B.11] (Eterna round: R97, puzzle: Exclusion 6) | 149 | 202 |  |  |
| GGCCCGCGCGUGAGGAUAUGCUGAUACUAGGAUUAGCAGAAGGCACAUGAGGAUCACCCAUGUCCAACUUGUCU [LRO-BmodExc4-11- Bluer = mod of Colors by Tatyana Zabanova] (Eterna round: R97, puzzle: Brourd's mod of Exclusion 4) | 34.4 | 24.5 |  |  |
| AAAAUUGGUGAGGAUAUGCAGAUGCGCAAUGUCGCAGAAGGCACCACAUGAGGAUCACCCAUGUGUCCUCUAAA [EX6 A.19] (Eterna round: R97, puzzle: Exclusion 6) | 34 | 19.8 |  |  |
| UAUCCACAUGAGGAUCACCCAUGUGAGGAUAUGUCCAUAUUCGGCAAAUCGGAUAUGGACAGAAGGCACACCGG [JR_Exclusion1_Sub011] (puzzle: Exclusion 1) |  |  | 35.4 |  |
| CAGGACAGAGGAUAUACAUAGAUACAGAUUCAUGUAGAACUACAUGAGGAUCACCCAUGUAGAAGGCUGUCCUG [Fiskers Ex 2 - 3] (Eterna round: R96, puzzle: Exclusion 2) | 370 | 33.5 |  | apparent KD of MS2 coat protein [2]: 25 nM |
